According to article PMC11079477 (iScience, 2024):
Where a chain is given by its changes, count along the chain named. Numbers in names are those of the source. Where two headings read alike, the source gives them in different places.

How the values were obtained:
[1] = target: the molecule itself; assay: reducing SDS-PAGE and immunoblot
[2] = target: the molecule itself; assay: non-reducing SDS-PAGE and Western blot
[3] = target: the molecule itself; assay: reducing SDS-PAGE and immunoblot of a membrane preparation
4M urea SDS-PAGE = target: the molecule itself; assay: 4M urea SDS-PAGE
non-reducing SDS-PAGE = target: the molecule itself; assay: non-reducing SDS-PAGE
[4] = target: the molecule itself

B1: PfP2-HA of P. falciparum 3D7 P2-HA glmS transgenic parasites (natural protein, Plasmodium falciparum 3D7, UniProt O00806 1-112, looked up)
chain: MAMKYVAAYLMCVLGGNENPSTKEVKNVLGAVNADVEDEVLNNFIDSLKGKSCHELITDGLKKLQNIGGGVAAAPAGAAAVETAEAKKEDKKEEKKEEEEEEEDDLGFSLFG
stoichiometry N [1]: 4

B2: PfP2C12A (Clone 1, C12A) (natural protein, Plasmodium falciparum 3D7, UniProt O00806 1-112, looked up)
chain: B1 chain with C12A
stoichiometry N [2]: 2

B3: PfP2 of wild type P. falciparum 3D7 parasites (natural protein, UniProt O00806 1-112, looked up)
chain: B1 chain
modifications: 11th methionine (Met11) oxidized in the parasite membrane preparation (ESI MS/MS)
stoichiometry N [1]: 4 | stoichiometry N [3]: 2

B4: LAFS-induced denaturation-resistant rec. PfP2 tetramer (natural protein, Plasmodium falciparum 3D7, UniProt O00806 1-112, looked up)
chain: B1 chain
modifications: 11th methionine (Met11) oxidized; Met11 S-O-S Met11 linkages between chains as the paper proposes
stoichiometry N (4M urea SDS-PAGE): 4

B5: 6x His tag recombinant PfP2 (P. falciparum 60S stalk ribosomal protein P2) (natural protein, Plasmodium falciparum 3D7, UniProt O00806 1-112, looked up)
chain: B1 chain
stoichiometry N (non-reducing SDS-PAGE): 4

B6: LAFS-induced alkylated rec. PfP2 tetramer (natural protein, Plasmodium falciparum 3D7, UniProt O00806 1-112, looked up)
chain: B1 chain
modifications: cysteines alkylated using iodoacetamide (IAA) after reduction with DTT
stoichiometry N [4]: 4
